From patent US6495376B1, “Methods and compositions for regulating protein-protein interactions” (Beth Israel Deaconess Medical Center, priority 1999, dated 2002) come the findings set out here.

One series concerns peptide substrate. Nature of the series: PPIase activity assay with peptide substrate. In kind it is biochemical. As to conditions: relative to wild-type protein defined as 100%.
For a further series, the target named is WFYSPFLE
Put plainly: Fluorescence anisotropy binding to fluorescein-labeled nonphosphorylated control peptide. Conditions: nonphosphorylated peptide. (In general: In fluorescence polarisation assays a small probe gives low polarisation when free and higher when bound to something large.)

The subject of the next series is WFYpSPFLE (Pintide). Nature of the series: Fluorescence anisotropy (polarization) binding to fluorescein-labeled phosphorylated Pintide analogue. The source says: To determine the affinity of Pin1, and its WW or PPIase domain for phosphopeptides, peptides were labeled with fluorescein and their interactions with Pin1 measured using quantitative fluorescence anisotrophy. To prevent nonspecific labeling, a Pintide analogue (WFYpSPFLE) SEQ ID NO: 9 was used, which binds Pin1 with a high affinity based on the peptide library screen as described by (Lu, K. P. et al., U.S. Ser. No. 60/058,164 (1997), the teachings of which are incorporated herein in their entirety.
Pintide and its nonphosphorylated counterpart were synthesized and incubated with GST-Pin1 or the GST-WW-domain of Pin1 in a binding buffer, using established procedures (Shen, M. et al., Genes & Dev 12:706 (1998)). After a 1 hr incubation, mitotic HeLa cell extracts were added and subjected to GST pull down experiments, followed by immunoblotting analysis using the MPM-2 antibody. To obtain semi-quantitative data, films of immunoblots were scanned at the region of 55 kDa, the major Pin1-binding protein, and data analyzed using ImageQuan (ScanJet II CX). The peptide binding constants were measured using a fluorescence polarization assay (Jiskoot, W. et al., Anal Biochem 196:421 (1991)). Peptides were fluorescein labeled at the N-terminus using the Fluorescein Amine Labeling Kit (Pan Vera Corp.) and purified by TLC according to the manufacturer's […]. To prevent nonspecific labeling, a Pintide analogue (WFYpSPFLE) SEQ ID NO: 8 and the nonphosphorylated control were used. Various concentrations of Pin1 and its mutant proteins were incubated with 0.1 μM of the labeled peptides in a binding buffer containing 50 mM HEPES, pH 7.4, 100 mM NaCl, 2% glycerol. Fluorescence polarization values were obtained using a Pan Vera Beacon 2000 system, as described by the manufacturer.

The test system of series [1] is MPM-2 antigens (mitotic phosphoproteins) of mitotic HeLa cell extracts. Put plainly: GST pulldown from mitotic HeLa cell extracts, MPM-2 immunoblotting (phosphoprotein-binding activity). The protocol: GST-fusion proteins containing the WW-domain, PPIase-domain or the entire Pin 1 protein were prepared and incubated with interphase (G1/S arrested; Control) or dividing (M phase) HeLa cell extracts using well-known procedures (Lu, K. P., et al., Nature 380:544 (1996); (Shen, M., et al., Genes & Devl. 12:706 (1998)). Briefly, HeLa cells were arrested at the G1/S boundary or mitosis by incubation with thymidine and aphidicolin or nocodazole for 16 h, respectively. The cells were lysed and supernatants incubated with 10 μl of agarose beads containing GST-Pin1; GST-WW-domain of Pin1; GST-PPIase domain of Pin1; or control GST for 2 h at 4° C. […]
Pintide and its nonphosphorylated counterpart were synthesized and incubated with GST-Pin1 or the GST-WW-domain of Pin1 in a binding buffer, using established procedures (Shen, M. et al., Genes & Dev 12:706 (1998)). […] To obtain semi-quantitative data, films of immunoblots were scanned at the region of 55 kDa, the major Pin1-binding protein, and data analyzed using ImageQuan (ScanJet II CX). The peptide binding constants were measured using a fluorescence polarization assay (Jiskoot, W. et al., Anal Biochem 196:421 (1991)). […] Fluorescence polarization values were obtained using a Pan Vera Beacon 2000 system, as described by the manufacturer. […]

For another series, the system named is phosphorylated tau. Nature of the series: GST-Pin1 pulldown of tau. In kind it is binding. Conditions: tau phosphorylated by Cdc2 in vitro. From the text: Pin1 binds and regulates the function of a defined subset of mitotic phosphoproteins by interacting with conserved phosphorylated Ser/Thr-Pro motifs that are also recognized by MPM-2, a mitosis-specific, phosphorylation-dependent monoclonal antibody (mAb) (Yaffe, M. B. et al., Science 278:1957-1960 (1997); Shen, M. et al., Genes Dev. 12:706-720 (1 998)). Tau is an MPM-2 antigen phosphorylated on multiple Ser/Thr-Pro motifs during mitosis (Illenberger, S. et al., Mol Biol Cell 9:1495-1512 (1998)). Experiments were undertaken to determine whether Pin1 binds tau. Tau isoform was either synthesized by in vitro transcription and translation in the presence of ^35S-Met or produced in bacteria as an N-terminal His-tagged protein, followed by purification using NTA-Ni columns (Yaffe, M. B. et al., Science 278:1957-1960 (1997); Shen, M. et al., Genes Dev. 12:706-720 (1998)). To generate interphase- and mitosis-specific phosphorylated form of tau, tau was incubated with Xenopus interphase and mitotic extracts, respectively (Shen, M. et al., Genes Dev. 12:706-720 (1998)). […]
Sequence of phosphorylated tau (P10636 45-216 isoform P10636-2 limits assumed): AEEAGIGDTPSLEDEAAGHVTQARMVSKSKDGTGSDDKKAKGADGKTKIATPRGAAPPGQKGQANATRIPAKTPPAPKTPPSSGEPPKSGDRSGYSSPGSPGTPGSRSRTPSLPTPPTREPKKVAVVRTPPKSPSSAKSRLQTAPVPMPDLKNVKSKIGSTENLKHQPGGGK
To determine whether Pin1 interacts with pT231-tau, GST-Pin1 beads were used to isolate tau from AD brain extracts or PHFs and T231 phosphorylation detected using CP9. […]

B1: PPlase Domain: C-terminal PPIase domain (amino acids 47-163) of Pin1 (protein)
chain: NGQGEPARVRCSHLLVKHSQSRRPSSWRQEKITRTKEEALELINGYIQKIKSGEEDFESLASQFSDCSSAKARGDLGAFSRGQMQKPFEDASFALRTGEMSGPVFTDSGIHIILRTE
Usually Kd stands for the constant that tells how readily two partners part at equilibrium. For the molecule B1, the “PPlase Activity (%)” value with peptide substrate amounted to 90%. The “WFYSPFLE Kd” value on WFYSPFLE is given as “Not binding”; at WFYSPFLE (listed as PPIase domain), “No binding was detected”. For the same molecule, in the series with WFYpSPFLE (Pintide), the “fold lower affinity for the phosphopeptide than the WW-domain” value is “about 10 fold”. Besides, in the series on WFYpSPFLE (Pintide) (fluorescence anisotropy), the “binding to Pintide (in words)” value was “No binding was detected”. The Kd at WFYpSPFLE (Pintide) (low affinity binding site, read-out: WFYpSPFLE Kd(μM) Low affinity) was determined as 15 µM. Also, the Phosphoprotein binding activity result in series [1] (GST-fusion proteins with mitotic extracts, MPM2 antibody) is recorded as “−”. For the same molecule, in series [1] (mitotic HeLa cell extracts), the “binding to mitotic phosphoproteins / MPM-2 antigens (in words)” value was “no specific binding”. The “binding to Cdc2 phosphorylated tau” value in the series with phosphorylated tau is given as “not”.
